Test results as given in patent US20240327534A1 (HARPOON THERAPEUTICS, published 2024).
Read-outs that look alike come from different tables or passages of the source.

T1: human BCMA on BCMA expressing cell lines (human, UniProt Q02223 1-184)
T1 sequence: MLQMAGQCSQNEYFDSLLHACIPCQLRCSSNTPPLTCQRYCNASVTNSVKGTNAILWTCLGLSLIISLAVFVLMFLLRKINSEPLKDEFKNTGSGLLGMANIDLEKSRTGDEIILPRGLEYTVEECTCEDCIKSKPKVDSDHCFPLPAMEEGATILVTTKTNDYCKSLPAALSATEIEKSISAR

T2: human BCMA protein (human, UniProt Q02223 1-54, limits assumed)
T2 sequence: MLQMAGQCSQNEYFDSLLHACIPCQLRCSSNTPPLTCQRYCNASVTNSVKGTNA


Assays:
[1] = target: T1, human BCMA on BCMA expressing cell lines; assay: cell-based or functional assay
human BCMA protein [2] = target: T2, human BCMA protein; assay: affinity of purified protein to human BCMA protein, method not stated
[3] = target: T1, human BCMA on BCMA expressing cell lines; assay: cell-based or functional assay; remark: listed apart in the source
[4] = target: T1, human BCMA on BCMA expressing cell lines; assay: cell-based or functional assay; remark: listed apart in the source
human BCMA protein [5] = target: T2, human BCMA protein; assay: affinity to human BCMA protein, method not stated

| Binder | TDCC Jeko1 EC50 [1] [pM] | TDCC MOLP-8 EC50 [1] [pM] | TDCC OPM-2 EC50 [1] [pM] | Kd (human BCMA protein [2]) [pM] | TDCC Jeko1 EC50 [3] [pM] | TDCC MOLP-8 EC50 [3] [pM] | TDCC OPM-2 EC50 [3] [pM] | TDCC EC50 (EJM cells) [4] [pM] | Kd (human BCMA protein [5]) [pM] |
| --- | --- | --- | --- | --- | --- | --- | --- | --- | --- |
| BH2T TriTAC (protein, part only; not given: anti-albumin and anti-CD3 domains, part only) chain, part: EVQLVESGGGLVQPGRSLTLSCAASTNIFSISPMGWYRQAPGKQRELVAAIHGFSTLYADSVKGRFTISRDNAKNSIYLQMNSLRPEDTALYYCNKVPWGDYHPRNVYWGQGTQVTVSSHHHHHH | 320 | 200 | 160 | – | – | – | – | – | – |
| 01F07-M34G TriTAC (other, not shown: large carriers; small tags and cut ends, trispecific; also called 01F01-M34G) VHH: EVQLVESGGGLVQPGRSLTLSCAASTNIFSTSPGGWYRQAPGKQRELVAAIHGFSTIYADSVKGRFTISRDNAKNSIYLQMNSLRPEDTALYYCNKVPWGDYHPGNVYWGQGTQVTVSS | – | – | – | 6000 | 9 | 2.2 | 5.6 | – | – |
| 01F07-M34Y TriTAC (other, trispecific; not shown: anti-albumin domain, anti-CD3 domain and the linkers of the TriTAC; the C-terminal His6 that follows them is left out) VHH: EVQLVESGGGLVQPGRSLTLSCAASTNIFSTSPYGWYRQAPGKQRELVAAIHGFSTIYADSVKGRFTISRDNAKNSIYLQMNSLRPEDTALYYCNKVPWGDYHPGNVYWGQGTQVTVSS | – | – | – | 3000 | 5.6 | 1.5 | 3.6 | – | – |
| 02G02-M34G TriTAC (other, not shown: large carriers; small tags and cut ends, trispecific) VHH: EVQLVESGGGLVQPGRSLTLSCAASTNIFSITPGGWYRQAPGKQRELVAAIHGASTLYADSVKGRFTISRDNAKNSIYLQMNSLRPEDTALYYCNKVPWGDYHPGNVYWGQGTQVTVSS | – | – | – | 7000 | 12 | 4 | 7.1 | – | – |
| 02G02-M34Y TriTAC (other, not shown: large carriers; small tags and cut ends, trispecific) VHH: EVQLVESGGGLVQPGRSLTLSCAASTNIFSITPYGWYRQAPGKQRELVAAIHGASTLYADSVKGRFTISRDNAKNSIYLQMNSLRPEDTALYYCNKVPWGDYHPGNVYWGQGTQVTVSS | – | – | – | 5000 | 11 | 5.6 | 6.2 | – | – |
| BCMA targeting trispecific protein 02F04 (other, not shown: large carriers; small tags and cut ends, trispecific; also called 02F04 TriTAC) VHH: EVQLVESGGGLVQPGRSLTLSCAASTNIFSSSPMGWYRQAPGKQRELVAAIHGFSTLYADSVKGRFTISRDNAKNSIYLQMNSLRPEDTALYYCNKVPWGDYHPGNVYWGQGTQVTVSS | – | – | – | – | 10 | 2.5 | 7.3 | 1.72 | 6750 |
| BCMA targeting trispecific protein 02G02 (other, trispecific; also called 02G02 TriTAC; not shown: anti-albumin domain, anti-CD3 domain and the linkers of the trispecific (TriTAC) format) VHH: EVQLVESGGGLVQPGRSLTLSCAASTNIFSITPMGWYRQAPGKQRELVAAIHGASTLYADSVKGRFTISRDNAKNSIYLQMNSLRPEDTALYYCNKVPWGDYHPGNVYWGQGTQVTVSS | – | – | – | – | 11 | 2.8 | 6.6 | 1.08 | 5260 |
